Assay results taken from IntAct's records for PubMed 30026228.

B1: Zinc fingers and homeoboxes protein 2 (Homo sapiens), Q9Y6X8 (parent)
chain: MASKRKSTTPCMVRTSQVVEQDVPEEVDRAKEKGIGTPQPDVAKDSWAAELENSSKENEVIEVKSMGESQSKKLQGGYECKYCPYSTQNLNEFTEHVDMQHPNVILNPLYVCAECNFTTKKYDSLSDHNSKFHPGEANFKLKLIKRNNQTVLEQSIETTNHVVSITTSGPGTGDSDSGISVSKTPIMKPGKPKADAKKVPKKPEEITPENHVEGTARLVTDTAEILSRLGGVELLQDTLGHVMPSVQLPPNINLVPKVPVPLNTTKYNSALDTNATMINSFNKFPYPTQAELSWLTAASKHPEEHIRIWFATQRLKHGISWSPEEVEEARKKMFNGTIQSVPPTITVLPAQLAPTKVTQPILQTALPCQILGQTSLVLTQVTSGSTTVSCSPITLAVAGVTNHGQKRPLVTPQAAPEPKRPHIAQVPEPPPKVANPPLTPASDRKKTKEQIAHLKASFLQSQFPDDAEVYRLIEVTGLARSEIKKWFSDHRYRCQRGIVHITSESLAKDQLAIAASRHGRTYHAYPDFAPQKFKEKTQGQVKILEDSFLKSSFPTQAELDRLRVETKLSRREIDSWFSERRKLRDSMEQAVLDSMGSGKKGQDVGAPNGALSRLDQLSGAQLTSSLPSPSPAIAKSQEQVHLLRSTFARTQWPTPQEYDQLAAKTGLVRTEIVRWFKENRCLLKTGTVKWMEQYQHQPMADDHGYDAVARKATKPMAESPKNGGDVVPQYYKDPKKLCEEDLEKLVTRVKVGSEPAKDCLPAKPSEATSDRSEGSSRDGQGSDENEESSVVDYVEVTVGEEDAISDRSDSWSQAAAEGVSELAESDSDCVPAEAGQA

Variants of: B1
Settings: with vhl_human VHL

Variant | effect of a mutation on the interaction
P440A | decreasing interaction strength
P464A | decreasing interaction strength
P427A;P440A;P464A | disrupting interaction strength
P427A | decreasing interaction strength
